Results published in patent publication US20160137696A1 (Bristol-Myers Squibb, published 2016).
Starred links: 1 amine or outer side, 2 acyl side, 3 side chain; linkers in the order of their positions; H or OH if unused. Positions of bridges follow the written chain, without caps; N, C: chain ends. Non-standard residues stand in square brackets, D forms with d. Groups on a side chain read outwards from the residue. Primed or numbered codes have the meaning given here. No end group written: not given here. *: point of attachment. PEG8′ = PEG8 unit (23-azido-3,6,9,12,15,18,21-heptaoxatricosyl, i.e. an eight-unit PEG spacer) linking the triazole to vitamin E succinate; Pra′ = propargylglycine (built in as LPH), clicked to a 1-substituted triazol-4-yl-alanine, O=C([C@H](Cc1cn([*:3])nn1)N[*:1])[*:2]; X1 = (S)‑3‑carboxy‑3‑(15-carboxypentadecanoylamino)propyl, O=C(O)CCCCCCCCCCCCCCC(=O)N[C@@H](CC*)C(=O)O; Pra″ = its azide, alkyne or alkene has reacted where a group follows in round brackets; X2 = (S)‑3‑carboxy‑3‑palmitamidopropyl, CCCCCCCCCCCCCCCC(=O)N[C@@H](CC*)C(=O)O; Phe(4-OMe)″ = p-methoxyphenylalanine, COc1ccc(C[C@H](N[*:1])C(=O)[*:2])cc1; Pra(3) = propargylglycine, clicked to an azide to give a triazolyl-alanine; triazole = 1,2,3-triazole formed by click of the Pra alkyne with the azide; Trp(1-CH2CO) = O=C([C@H](Cc1cn(CC(=O)[*:3])c2ccccc12)N[*:1])[*:2]; Tyr(Me) = O-methyl-tyrosine, COc1ccc(C[C@H](N[*:1])C(=O)[*:2])cc1; C18 diacid = O=C(O)CCCCCCCCCCCCCCCCC(=O)*; Phe(4-F) = N[C@@H](Cc1ccc(F)cc1)C(=O)O; γGlu = O=C(O)[C@H](CCC(=O)[*:2])N[*:1]; Hyp = O=C(O)[C@@H]1C[C@@H](O)CN1; NMeF = CN[C@@H](Cc1ccccc1)C(=O)O; F3Phe = trifluoro-phenylalanine; dHyp = O=C(O)[C@H]1C[C@H](O)CN1; NMeNle = CCCC[C@H](NC)C(=O)O; Suc = O=C(CCC(=O)[*:2])[*:1]; triazole″ = not defined here; Pip = O=C(O)[C@@H]1CCCCN1; NMeA = CN[C@@H](C)C(=O)O; Pra = C#CC[C@H](N)C(=O)O; Dab = NCC[C@H](N)C(=O)O; Dap = NC[C@H](N)C(=O)O

B1: Example 14086 (peptide)
peptide: YADPHKPWKWXXECGXD
modifications: as m110 (INT 1400E); Pra triazole-linked to vitamin E succinate 5-azidopentylamide
B2: INT-130AD (peptide)
peptide: {CH2CO}-Y[NMeA]NP[Dap]L[Hyp]W[Dab][Trp(1-CH2CO)][NMeNle][NMeNle]ECG[Pra]-OH
modifications: thioether N-14
SMILES: C#CC[C@H](NC(=O)CNC(=O)[C@@H]1CSCC(=O)N[C@@H](Cc2ccc(O)cc2)C(=O)N(C)[C@@H](C)C(=O)N[C@@H](CC(N)=O)C(=O)N2CCC[C@H]2C(=O)N[C@@H](CN)C(=O)N[C@@H](CC(C)C)C(=O)N2C[C@H](O)C[C@H]2C(=O)N[C@@H](Cc2c[nH]c3ccccc23)C(=O)N[C@@H](CCN)C(=O)N[C@@H](Cc2cn(CC(=O)O)c3ccccc23)C(=O)N(C)[C@@H](CCCC)C(=O)N(C)[C@@H](CCCC)C(=O)N[C@@H](CCC(=O)O)C(=O)N1)C(=O)O
B3: INT-1300W (peptide)
peptide: {CH2CO}-Y[NMeA]NP[Dap]L[Hyp]W[Dab][Trp(1-CH2CO)][NMeNle][NMeNle]LCG[Pra]
modifications: thioether N-14; not fully specified; printed as ClAc-Tyr-[N-Me]Ala-Asn-Pro-Dap-Leu-Hyp-Trp-Dab-Trp(1-carboxymethyl)-[N-Me]Nle-[N-Me]Nle-Leu-Cys-Gly-[(S)-propargylglycine]
B4: INT-1400L (peptide)
peptide: {CH2CO}-[F3Phe][NMeF][NMeNle][dHyp]DV[NMeF]D[dP]WYLCG[Pra]
modifications: thioether N-13; not fully specified (C-terminus); printed as ClAc-F3Phe-mPhe-mNle-dHyp-Asp-Val-mPhe-Asp-dPro-Trp-Tyr-Leu-Cys-Gly-[(S)-propargylglycine]
notes: also called Intermediate 1400L
B5: INT-1300V (peptide)
peptide: {CH2CO}-Y[NMeA]NP[Dap]L[Hyp]W[Dab][Trp(1-CH2CO)][NMeNle][NMeNle]LCG[Pra]-OH
modifications: thioether N-14
SMILES: C#CC[C@H](NC(=O)CNC(=O)[C@@H]1CSCC(=O)N[C@@H](Cc2ccc(O)cc2)C(=O)N(C)[C@@H](C)C(=O)N[C@@H](CC(N)=O)C(=O)N2CCC[C@H]2C(=O)N[C@@H](CN)C(=O)N[C@@H](CC(C)C)C(=O)N2C[C@H](O)C[C@H]2C(=O)N[C@@H](Cc2c[nH]c3ccccc23)C(=O)N[C@@H](CCN)C(=O)N[C@@H](Cc2cn(CC(=O)O)c3ccccc23)C(=O)N(C)[C@@H](CCCC)C(=O)N(C)[C@@H](CCCC)C(=O)N[C@@H](CC(C)C)C(=O)N1)C(=O)O
B6: INT-1400I (peptide)
peptide: {CH2CO}-Y[NMeA]NP[Dap]L[Hyp]WS[Trp(1-CH2CO)][NMeNle][NMeNle]ECG[Pra]
modifications: thioether N-14; not fully specified (C-terminus); printed as ClAc-Tyr-mAla-Asn-Pro-Dap-Leu-Hyp-Trp-Ser-Trp(1-carboxymethyl)-mNle-mNle-E-Cys-Gly-[(S)-propargylglycine], cyclised ClAc-Cys
notes: also called Intermediate 1400I
B7: Example 14085 (peptide)
peptide: YADPHKPWKWXXECGX
modifications: as m102 (INT 1300Y); Pra triazole-linked to vitamin E succinate 5-azidopentylamide
B8: Example 14124 (peptide)
peptide: {CH2CO}-F[Pip]DP[Dap]L[Hyp]W[Dab]W[NMeNle][NMeNle]LCGD
modifications: thioether N-14; not fully specified (residues 1, 10, 16, C-terminus); also: residue 1 written Tyr(4-F)
B9: Example 14082 (peptide)
peptide: YADPHKPWKWXXECGX
modifications: as m115 (INT 1400J); Pra triazole-linked to vitamin E succinate 5-azidopentylamide
B10: INT-130AE (peptide)
peptide: {CH2CO}-Y[NMeA]DP[Dap]L[Hyp]W[Dab][Trp(1-CH2CO)][NMeNle][NMeNle]ECG[Pra]-OH
modifications: thioether N-14
SMILES: C#CC[C@H](NC(=O)CNC(=O)[C@@H]1CSCC(=O)N[C@@H](Cc2ccc(O)cc2)C(=O)N(C)[C@@H](C)C(=O)N[C@@H](CC(=O)O)C(=O)N2CCC[C@H]2C(=O)N[C@@H](CN)C(=O)N[C@@H](CC(C)C)C(=O)N2C[C@H](O)C[C@H]2C(=O)N[C@@H](Cc2c[nH]c3ccccc23)C(=O)N[C@@H](CCN)C(=O)N[C@@H](Cc2cn(CC(=O)O)c3ccccc23)C(=O)N(C)[C@@H](CCCC)C(=O)N(C)[C@@H](CCCC)C(=O)N[C@@H](CCC(=O)O)C(=O)N1)C(=O)O

Biological target: T1, Recombinant Human PD-L1-TVMV-His (human, UniProt Q9NZQ7 19-239)
T1 construct: expressed in HEK293T cells; also called PD-L1-His; hPD-L1(19-239)-TVMV-His
Assay: HTRF vs PD-1-Ig; B = IC50 0.01-0.099 µM
Method: Homogenous Time-Resolved Fluorescence (HTRF) Assays of Binding of Soluble PD-1 to Soluble PD-L1. Soluble PD-1 and soluble PD-L1 refers to proteins with carboxyl-end truncations that remove the transmembrane-spanning regions and are fused to heterologous sequences, specifically the Fc portion of the human immunoglobuling G sequence (Ig) or the hexahistidine epitope tag (His). All binding studies were performed in an HTRF assay buffer consisting of dPBS supplemented with 0.1% (w/v) bovine serum albumin and 0.05% (v/v) Tween-20. For the PD-1-Ig/PD-L1-His binding assay, inhibitors were pre-incubated with PD-L1-His (10 nM final) for 15 m in 4 μl of assay buffer, followed by addition of PD-1-Ig (20 nM final) in 1 μl of assay buffer and further incubation for 15 m. PD-L1 fusion proteins from either human, cynomologous macaques, mouse, or other species were used. HTRF detection was achieved using europium crypate-labeled anti-Ig monoclonal antibody (1 nM final) and allophycocyanin (APC) labeled anti-His monoclonal antibody (20 nM final). Antibodies were diluted in HTRF detection buffer and 5 μl was dispensed on top of binding reaction. The reaction was allowed to equilibrate for 30 minutes and signal (665 nm/620 nm ratio) was obtained using an EnVision fluorometer. Additional binding assays were established between PD-I-Ig/PD-L2-His (20 and 5 nM, respectively), CD80-His/PD-L1-Ig (100 and 10 nM, respectively) and CD80-His/CTLA4-Ig (10 and 5 nM, respectively). Binding/competition studies between biotinylated Compound No. 71 and human PD-L1-His were performed as follows. Macrocyclic peptide inhibitors were pre-incubated with PD-L1-His (10 nM final) for 60 minutes in 4 μl of assay buffer followed by addition of biotinylated Compound No. 71 (0.5 nM final) in 1 μl of assay buffer. Binding was allowed to equilibrate for 30 minutes followed by addition of europium crypated labeled Streptavidin (2.5 pM final) and APC-labeled anti-His (20 nM final) in 5 μl of HTRF buffer. The reaction was allowed to equilibrate for 30 m and signal (665 nm/620 nm ratio) was obtained using an EnVision fluorometer.

T1 sequence (Q9NZQ7 other isoform, or with tags, fused parts or gaps limits assumed): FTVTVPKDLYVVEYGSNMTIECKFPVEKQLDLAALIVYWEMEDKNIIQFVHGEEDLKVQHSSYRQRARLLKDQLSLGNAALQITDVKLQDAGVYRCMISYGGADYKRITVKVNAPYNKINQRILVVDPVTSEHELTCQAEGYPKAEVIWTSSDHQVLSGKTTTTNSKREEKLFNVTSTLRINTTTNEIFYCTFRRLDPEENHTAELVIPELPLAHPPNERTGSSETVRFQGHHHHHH

Row | Binder | IC50 [nM]
1 | {CH2CO}-Y[NMeA]DPHK[Hyp]WKW[NMeNle][NMeNle]ECG[Pra(3)]([triazole″-X2])D (thioether N-14; reading uncertain) [Example 14061] | 10 to 99
2 | {CH2CO}-Y[NMeA]DPHK[Hyp]WK[Trp(1-CH2CO)][NMeNle][NMeNle]ECG[Pra′]([triazole-X1])D (thioether N-14) [Example 14071] | 10 to 99
3 | {CH2CO}-Y[NMeA]DPHK[Hyp]WKW[NMeNle][NMeNle]ECG[Pra′]([triazole-X1])D (thioether N-14) [Example 14065] | 10 to 99
4 | B1 | 10 to 99
5 | B2 | 10 to 99
6 | {CH2CO}-Y[Pip]NP[Dap]L[Hyp]W[Dab][Trp(1-CH2CO)][NMeNle][NMeNle]LCG[Dab]([γGlu-C18 diacid]) (thioether N-14 (inferred)) [Example 13149] | 10 to 99
7 | B3 | 10 to 99
8 | B4 | 10 to 99
9 | B5 | 10 to 99
10 | {CH2CO}-Y[NMeA]NP[Dap]L[Hyp]WS[Trp(1-CH2CO)][NMeNle][NMeNle]LCG[Pra] (thioether N-14, also called Intermediate 1300X) [INT-1300X] | 10 to 99
11 | B6 | 10 to 99
12 | {CH2CO}-Y[NMeA]NP[Dap]L[Hyp]WS[Trp(1-CH2CO)][NMeNle][NMeNle]ECG[Pra′]([triazole-X1]) (thioether N-14) [Example 14070] | 10 to 99
13 | B7 | 10 to 99
14 | B8 | 10 to 99
15 | B9 | 10 to 99
16 | {CH2CO}-[Tyr(Me)][Pip]DP[Dap]Q[Hyp]W[Dab][Trp(1-CH2CO)][NMeNle][NMeNle]ECG[Pra″]([triazole-(S)‑18‑((3-azido-1-carboxypropyl)amino)‑18‑oxooctadecanoic acid]) (thioether N-14) [Example 14121] | 10 to 99
17 | B10 | 10 to 99
18 | {CH2CO}-Y[NMeA]DPHK[Hyp]WKW[NMeNle][NMeNle]ECG[Pra″]([triazole″-PEG8′-Suc-vitamin E])G (thioether N-14; reading uncertain) [Example 14052] | 10 to 99
19 | {CH2CO}-[Phe(4-F)][Pip]DP[Dap]L[Hyp]W[Dab][Trp(1-CH2CO)][NMeNle][NMeNle]LCG[Pra″]([triazole-(S)‑18‑((3-azido-1-carboxypropyl)amino)‑18‑oxooctadecanoic acid]) (thioether N-14; also: residue 1 written Tyr(4-F)) [Example 14122] | 10 to 99
20 | {CH2CO}-[Phe(4-OMe)″][Pip]NPHL[Hyp]W[Dab][Trp(1-CH2CO)][NMeNle][NMeNle]LCG[Dab]([γGlu-C18 diacid]) (thioether N-14 (inferred)) [Example 13151] | 10 to 99
